Reference: US20230303690A1 (published 2023)
Read-outs that look alike come from different tables or passages of the source.

T1: LAG3 Protein, Human, Recombinant (His Tag) (Sino Biological Catalog No. 16498-H08H) (human, UniProt P18627 23-450)
T1 construct: Bought protein; also called hLAG3-His; LAG3-His; not shown: His tag
T1 sequence (looked up): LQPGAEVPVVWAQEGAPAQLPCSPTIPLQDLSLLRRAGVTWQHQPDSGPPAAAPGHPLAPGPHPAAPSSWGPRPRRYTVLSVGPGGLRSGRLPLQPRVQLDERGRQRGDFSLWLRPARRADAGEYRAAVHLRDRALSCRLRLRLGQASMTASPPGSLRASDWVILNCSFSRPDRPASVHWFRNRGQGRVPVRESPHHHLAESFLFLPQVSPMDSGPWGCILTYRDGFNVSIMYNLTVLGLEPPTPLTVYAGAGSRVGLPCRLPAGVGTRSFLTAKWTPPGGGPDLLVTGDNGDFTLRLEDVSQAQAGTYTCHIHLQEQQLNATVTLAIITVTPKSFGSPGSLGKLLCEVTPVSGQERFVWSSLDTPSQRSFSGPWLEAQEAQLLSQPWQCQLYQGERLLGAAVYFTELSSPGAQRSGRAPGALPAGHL

T2: human LAG3 expressed on cells (human, UniProt P18627 23-525)
T2 construct: whole, on cells
T2 sequence (looked up): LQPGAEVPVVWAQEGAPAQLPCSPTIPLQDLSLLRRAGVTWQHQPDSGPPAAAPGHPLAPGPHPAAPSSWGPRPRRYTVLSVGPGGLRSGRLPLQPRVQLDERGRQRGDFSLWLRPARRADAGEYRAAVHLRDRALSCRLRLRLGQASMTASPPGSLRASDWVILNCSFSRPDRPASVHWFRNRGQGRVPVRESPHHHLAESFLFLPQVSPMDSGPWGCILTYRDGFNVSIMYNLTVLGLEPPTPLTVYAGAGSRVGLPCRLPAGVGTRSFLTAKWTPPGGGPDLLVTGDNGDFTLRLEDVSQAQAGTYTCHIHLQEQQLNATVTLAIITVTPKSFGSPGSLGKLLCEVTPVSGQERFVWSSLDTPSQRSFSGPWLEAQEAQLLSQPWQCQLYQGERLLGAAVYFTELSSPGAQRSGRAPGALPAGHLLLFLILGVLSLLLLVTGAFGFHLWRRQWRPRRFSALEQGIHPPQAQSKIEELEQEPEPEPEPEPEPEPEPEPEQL


Legend:
[1] = biological target: T1, LAG3 Protein, Human, Recombinant (His …); assay: ELISA, coated hLAG3-His
Procedure: (§1) Plates were coated with 100 µL per well of Coating Solution, and then covered, and incubated overnight (12-18 hours) at 2-8° C. The wells were aspirated and washed 1 time with >200 µL of Wash buffer per well, inverted and tapped on absorbent paper to remove excess liquid. The plates were blocked with 200 µL per well with Blocking buffer (1×PBS+4% milk) for 1 hour at room temperature, aspirated, inverted, and tapped on absorbent paper to remove excess liquid. Standards and sample dilutions were prepared in Blocking buffer. 100 µL of standards (in duplicate) and samples were pipetted into designated wells. After incubation for 1 hour at room temperature with gentle continual shaking (~500 rpm), the wells were aspirate and washed 3 times with >200 µL of Wash buffer per well, inverted and tapped on absorbent paper to remove excess liquid.
(§2) The primary antibody solution was diluted with Blocking buffer. See Table 14 for recommended primary antibody dilution. 100 µL of the primary antibody solution was added into each well and incubated for 2 hours at room temperature with gentle continual shaking (~500 rpm). The wells were aspirated and washed 3 times with >200 µL of Wash buffer per well, inverted and tapped on absorbent paper to remove excess liquid. The working solution of secondary antibody was made with Blocking buffer by diluting the secondary antibody by 2,500 times. 100 µL of secondary antibody working solution was added into each well and incubated for 30 minutes at room temperature. The wells were aspirated and washed 5 times with >200 µL of Wash buffer per well, inverted and tapped on absorbent paper to remove excess liquid. 100 µL of TMB substrate solution (Biopanda, TMB-S-004) was added to each well and incubated for 30 minutes at room temperature. 100 µL of Stop solution (Solarbio, C1058) was added to each well.

[2] = biological target: T2, human LAG3 expressed on cells; assay: cell ELISA, 293T-hLAG3 cells
Procedure: Each well was treated with stimulants. The cells were then fixed and blocked with Blocking buffer. The Primary antibodies were added. The wells were washed and a HRP-conjugated secondary antibody was added. The wells were washed with 1x PBS and a solution containing TMB (Biopanda, TMB-S-004) was added. The TMB reacted with HRP to change the color thereof from colorless to blue. An acid stop solution (Solarbio, C1058) was then added to stop the reaction and change the blue color to yellow.
Materials are listed below: [0072] […] 2) Blocking buffer: 1×PBS+3% BSA (Sigma, B2064); [0074] […] [0075] 4) Secondary antibody: Goat anti-human IgG1 Fc antibody, HRP (1:2500, invitrogen, A18817). [0076]

[3] = biological target: human LAG3 expressed on cells (human) (UniProt P18627); assay: cell ELISA, 293T-LAG3 cells
[4] = biological target: T1, LAG3 Protein, Human, Recombinant (His …); assay: ELISA, coated hLAG3-His; remark: listed apart in the source
Procedure: as §1
as §2, with “well. Absorbance at 450 nm was measured within 30 minutes of adding Stop solution. Results were calculated using a log-log or 4-parameter curve fit.” for “well.”

[5] = biological target: T1, LAG3 Protein, Human, Recombinant (His …); assay: SPR (Biacore), sdAb captured by anti-human Fc, LAG3-His analyte
Procedure: The binding of the single domain antibodies to recombinant human LAG3 protein (rhLAG3) was examined by Biacore™ assay. […] The coating was carried out according to the manufacturer’s instructions accompanying the kit (Catalog No. BR-1008-39, GE). […] The chip surface was regenerated after each cycle with 25 mM NaOH followed by HBS-EP wash provided in the kit.

Binder | EC50 [1] [nM] | OD450 at 0.004572 ug/ml [1] | OD450 at 0.013717 ug/ml [1] | OD450 at 0.041152 ug/ml [1] | OD450 at 0.123457 ug/ml [1] | OD450 at 0.37037 ug/ml [1] | OD450 at 1.111111 ug/ml [1] | OD450 at 3.333333 ug/ml [1] | OD450 at 10 ug/ml [1] | EC50 [2] [nM] | OD450 at 0.0045725 ug/ml [2] | OD450 at 0.0137174 ug/ml [2] | OD450 at 0.0411523 ug/ml [2] | OD450 at 0.1234568 ug/ml [2] | OD450 at 0.3703704 ug/ml [2] | OD450 at 1.111111 ug/ml [2] | OD450 at 3.333333 ug/ml [2] | OD450 at 10 ug/ml [2] | OD450 at 0.122 nM [3] | OD450 at 0.366 nM [3] | also measured
sdAb No. 27-H1 (VHH, Modified sdAb No. 27 (CDR2 DG to DA); not shown: Fc part implied by anti-human IgG1 Fc detection) VHH: QVQLVESGGGLVQPGGSLRLSCAASGFTLDYYAIGWFRQAPGKEREGVSCIRSSDASTYYADSVKGRFTISSDNTKNTVYLQMNSLKPEDTAVYYCATDRYSDCRGPYENWGQGTQVTVSS | 3.28 | 0.04 | 0.043 | 0.063 | 0.36 | 1.42 | 1.8 | 2 | 1.95 | 1.4 | 0.076 | 0.171 | 0.359 | 0.719 | 1.08 | 1.17 | 1.24 | 1.33 | – | – | –
sdAb No. 27-H2 (VHH, Modified sdAb No. 27 (CDR2 DG to EG); not shown: Fc part implied by anti-human IgG1 Fc detection) VHH: QVQLVESGGGLVQPGGSLRLSCAASGFTLDYYAIGWFRQAPGKEREGVSCIRSSEGSTYYADSVKGRFTISSDNTKNTVYLQMNSLKPEDTAVYYCATDRYSDCRGPYENWGQGTQVTVSS | 3.73 | 0.038 | 0.043 | 0.063 | 0.334 | 1.43 | 1.96 | 2.08 | 2.27 | 1.55 | 0.075 | 0.152 | 0.314 | 0.626 | 1.07 | 1.16 | 1.14 | 1.2 | – | – | –
sdAb No. 25-B5 (VHH, Humanized sdAb No. 25; not shown: Fc part implied by anti-human IgG1 Fc detection) VHH: QVQLVESGGGLVKPGGSLRLSCAASGSIESFSFMGWYRQAPGKQREWVAGFTGAASLSFSTYTDAVKGRFTISRDNAKNSLYLQMNSLRAEDTAVYYCNVDPWSQSWPGRYWGQGTTVTVSS | – | – | – | – | – | – | – | – | – | – | – | – | – | – | – | – | – | – | 0.086 | 0.113 | OD450 at 1.097 nM [3]: 0.124; OD450 at 3.292 nM [3]: 0.196; OD450 at 9.877 nM [3]: 0.21; OD450 at 29.63 nM [3]: 0.254; OD450 at 88.89 nM [3]: 0.311; OD450 at 266.67 nM [3]: 0.608; EC50 [4]: 452 nM; OD450 at 0.061 nM [4]: 0.036; OD450 at 0.1829 nM [4]: 0.04; OD450 at 0.5487 nM [4]: 0.038; OD450 at 1.6461 nM [4]: 0.048; OD450 at 4.9383 nM [4]: 0.062; OD450 at 14.815 nM [4]: 0.084; OD450 at 44.445 nM [4]: 0.114; OD450 at 133.335 nM [4]: 0.163
sdAb No. 25-B6 (VHH, Humanized sdAb No. 25; not shown: Fc part implied by anti-human IgG1 Fc detection) VHH: QLQLVESGGGLVKPGGSLRLSCAASGSIESFSFMGWYRQAPGKQREWVAGFTGAASLSFSTYTDAVKGRFTISRDNAKNSVYLQMNSLRAEDTAVYYCNVDPWSQSWPGRYWGQGTTVTVSS | – | – | – | – | – | – | – | – | – | – | – | – | – | – | – | – | – | – | 0.056 | 0.07 | OD450 at 1.097 nM [3]: 0.095; OD450 at 3.292 nM [3]: 0.166; OD450 at 9.877 nM [3]: 0.306; OD450 at 29.63 nM [3]: 0.399; OD450 at 88.89 nM [3]: 0.888; OD450 at 266.67 nM [3]: 1.47; OD450 at 0.061 nM [4]: 0.037; OD450 at 0.1829 nM [4]: 0.039; OD450 at 0.5487 nM [4]: 0.037; OD450 at 1.6461 nM [4]: 0.044; OD450 at 4.9383 nM [4]: 0.053; OD450 at 14.815 nM [4]: 0.069; OD450 at 44.445 nM [4]: 0.085; OD450 at 133.335 nM [4]: 0.128
sdAb No. 8 (VHH, Fc of the tested form not described; not shown: Fc part implied by anti-human Fc capture) VHH: QLQLVESGGGLVQPGGSLRLSCAASGFTLDYYAIGWFRQAPGKEREGVSCISSSDGSTYYADSVKGRFTISRDNAKNTVYLQMNSLKPEDTAIYYCARDSLSGSGYGCRGPYDYWGQGTQVTVSS | – | – | – | – | – | – | – | – | – | – | – | – | – | – | – | – | – | – | – | – | Kd [5]: 0.347 nM; koff [5]: 0.000277 s⁻¹; kon [5]: 797000 M⁻¹ s⁻¹
